41 sequences from the nanobody polyreactivity screen of Harvey et al. (2022) can be followed below.

This data set can be described thus: yeast display, Sf9 membrane polyspecificity reagent, FACS + sequencing; frameworks hold sequencing errors. The method, boiled down: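 Sorting gates, low and high (top ~1%), were placed on anti-HA fluorescence to track expression and on streptavidin fluorescence to track reagent binding. A clone's polyreactivity label is taken from the gate it came out of. The reagent was 10% biotinylated, detergent-solubilized Sf9 membrane, applied for 1 hour at 4 °C to galactose-induced yeast display cells.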
Regarding “QVQLVESGGGLVQAGGSLRLSCAASGSIFVSYAMGWYRQAPGKERELVAAITSIGTRTYYADSVKGRFTISRDNAKNTVYLQINSLKPEDTAVYYCNAPRFWSRHGLRDYWGQVTQVTVSS”, the “polyreactivity (PSR sort gate)” value was “high polyreactivity”. As to “QVQLVESGGGLVQAGGSLRLSCAASGSIFVTNAMGWYRQAPGKERELVAAIRGGGGSTYYADSVKGRFTISRDNAKNTVYLQMNSLKPEDTAVYYCNADRRGYLQSEMDYWGQGTQVTVSS”, the “polyreactivity (PSR sort gate)” value is “low polyreactivity”. Turning to “QVQLVESGGGLVQAGGSLRLSCAASGSIFVTYALGWYRQAPGKERELVAVLTWGGGSTYYADSVKGRFTISRDNAKNTVYLQMNSLKPEDTAVYYCAKDSYYYRRDVTVDYWGQGTQVTVSS”, the “polyreactivity (PSR sort gate)” value was “low polyreactivity”. Regarding “QVQLVESGGGLVQAGGSLRLSCAASGSIFVTYAMGWYRQAPGKERELVARITSGGSTYYADSVKGRFTISRDNAKNTVYLQMNSLKPEDTAVYYCAARRWLRYDLDYGGQGTQVTVSS”, the “polyreactivity (PSR sort gate)” value is on record as “low polyreactivity”. With “QVQLVESGGGLVQAGGSLRLSCAASGSIFVTYAMGWYRQAPGKERELVASISWRGVSTRYADSVKGRFTISRDNAKNTVYLQMNSLKPEDTAVDYCAAVYRRTRSGIFDYWGQGTQVTVSS”, the “polyreactivity (PSR sort gate)” value is on record as “high polyreactivity”. The result for “QVQLVESGGGLVQAGGSLRLSCAASGSIFVVNAMGWYRPAPGKERELVAAINWSDGSTYYADSVKGRFTISRDTAKNTVYLQLTSLKPEDTAVDYCAAEVPYFYFEGWNYDYWGQGTQVTVSS” reads “high polyreactivity”. For the sequence “QVQLVESGGGLVQAGGSLRLSCAASGSIFVVYAMGWYRQAPGKERELVASIRTGGSTNYADSVKGRFTISRDNAKNTVYLQMNSLKPEDTAVYYCAAASWNCNRHYYVARYYYWGQGTQVNVSS”, the “polyreactivity (PSR sort gate)” value is listed as “high polyreactivity”. Take “QVQLVESGGGLVQAGGSLRLSCAASGSIFVVYAMGWYRQAPGKERELVAVITDDGSTYYADSVKGRFTISRDNAKNTVYLQMNSLKPEDTAVYYCAAEGAATPDFGSWYYYWGQGTQVTVSS”: the “polyreactivity (PSR sort gate)” value is “low polyreactivity”. On to “QVQLVESGGGLVQAGGSLRLSCAASGSIFVWNAMGWYIQAPRKERELVAAISYTDGSTYYADSVKGRFTISRDNAKNTVYLQMNSMNPEDTAVYYCAASTLKDIYLWFRVDYWGQCTQVTVSS”, for which the “polyreactivity (PSR sort gate)” value was “low polyreactivity”. As to “QVQLVESGGGLVQAGGSLRLSCAASGSIFVYNAMGWYRQAPGKERELVAAISQRGGSTYYADSVKGRFTISRDNAKNTVYLQMNSLKPEDTADYYCAAGPGDSGDDYWGQGTQVTVSS”, the “polyreactivity (PSR sort gate)” value is reported as “low polyreactivity”. As to “QVQLVESGGGLVQAGGSLRLSCAASGSIFVYNAMGWYRQATGKEREMVAVINKSGDTTYYADSVKGRFTISRDNAKNTVYLQMNSLKPEDTAVYYCNASGEVLAAVVSYDYWGQGTQVTVSS”, the “polyreactivity (PSR sort gate)” value was “low polyreactivity”. Consider “QVQLVESGGGLVQAGGSLRLSCAASGSIFVYYAMGWYRQAPGKERELVAAINSGSITKYADSVKGRFTISRDNAKNTVYLQMNSLKPEYTAVYYCAARYDNTYRTETSYPRYYSWGQGTQVTVSS”, for which the “polyreactivity (PSR sort gate)” value was “high polyreactivity”.

Consider “QVQLVESGGGLVQAGGSLRLSCAASGSIFVYYTMGWYRQAPGKVRELVATITFRGNTYYADSVKGRFTISRDNAKNTVYLQMNSLKPEDTAVSYCAATRYGHRYYYRPYEYWGQGTQVTVSS”, for which the “polyreactivity (PSR sort gate)” value is “high polyreactivity”. In the case of “QVQLVESGGGLVQAGGSLRLSCAASGSIFWGNAMGWYRQAPGKERELVADISGGDTYYADSVKGRFTISRDNAKNTVYLQMNSLKPEDTAVYYCAADVWQYFYPYGYYYWGLGTQVTVSS”, the “polyreactivity (PSR sort gate)” value is on record as “high polyreactivity”.

“QVQLVESGGGLVQAGGSLRLSCAASGSIFWGYAMGWYRQAPGKERELVAAIRVSGGSTYYADSVKGRFTISRDNAKNTVYLQMNSLKPEDTAVYYCARDTWGGFSSADNYWGQGTQVTVSS”: the “polyreactivity (PSR sort gate)” value is on record as “high polyreactivity”. Take “QVQLVESGGGLVQAGGSLRLSCAASGSIFWIYAMGWYRQAPGKERELVATITRRGGSTYYADSVKGRFTISRDNAKNTVYLQMNSLKPEDTAVYYCATEPGYTFLTSYKYDYWGQGTQVTVSS”: the “polyreactivity (PSR sort gate)” value is “low polyreactivity”. Regarding “QVQLVESGGGLVQAGGSLRLSCAASGSIFWLYAMGWYRQAPGKESELVAAIDSGDSTKYADSVKGRFTISRDNAKNTVYLQMNSLKPEDTAVYYCNASRRYHVRAPYDYWGQGTQVTVSS”, the “polyreactivity (PSR sort gate)” value was “low polyreactivity”. Turning to “QVQLVESGGGLVQAGGSLRLSCAASGSIFWPYAMGWYRPAPGKERELVATISWNGGSTYYADSVKGRFTISRDNAKNTVYLQMNSLKPEDTAVYYCAAEVYFNQYGGMDYWGQGTQVTVSS”, the “polyreactivity (PSR sort gate)” value is recorded as “low polyreactivity”.

With “QVQLVESGGGLVQAGGSLRLSCAASGSIFWPYAMGWYRQAPGKERELVAAISSSTGRTYYADSVKGRFTLSRDNEKNTVYLQMNSLKPEDTAVDYCAADIGTTSYRYYYWGQGTQVTVSS”, the “polyreactivity (PSR sort gate)” value was “high polyreactivity”. As for “QVQLVESGGGLVQAGGSLRLSCAASGSIFWQYAMGWYRQAPGTERELVAAISSRGGSTYYADSVKGRFTISRDNAKNTVYLQMNTLKPEDTAVYYCAAHSVVRSYAARDSGYDYWGQGTQVTVSS”, the “polyreactivity (PSR sort gate)” value is listed as “high polyreactivity”. On to “QVQLVESGGGLVQAGGSLRLSCAASGSIFWRNAMGWYRQAPGKERELVAVISSGGRTYYADSVKGRFTISRDNAKNTVYLQMNSLKPEDTAVYYCAAQYHGGISQRLYYWGQGTQVTVSS”, for which the “polyreactivity (PSR sort gate)” value is on record as “high polyreactivity”.

Take “QVQLVESGGGLVQAGGSLRLSCAASGSIFWRNTMGWYRQAPGKEREFVAAISSNGGGTYYADSVKGRFTISRDKAKNTVYLQTNSLKPEDTAVYYFAATAGGSYKLWYYYWGQGTQVTVSS”: the “polyreactivity (PSR sort gate)” value is “high polyreactivity”. As for “QVQLVESGGGLVQAGGSLRLSCAASGSIFWRYAMGWYRQAPGKERELVATITSRGGSTYYADSVKGRFTISRDNAKNTVYLQMNSLKQEDTAVYYCAAGWLPKYGYWGQGTQVTVSS”, the “polyreactivity (PSR sort gate)” value was “low polyreactivity”. The result for “QVQLVESGGGLVQAGGSLRLSCAASGSIFWSNAMGWYRQAPGKERELVAASSSGGSTYADSVKGRFTISRDTAKNTVYLQMNSLKPEDNAVYDCNARDYSVGRNDYWGQGTQVTVSS” reads “low polyreactivity”.

On to “QVQLVESGGGLVQAGGSLRLSCAASGSIFWSNAMGWYRQAPGKESELVATIDDDVGSTYYADSVMGRFTISRDNAKNTVYLQMNSLKPEDTAVYYCAADSVYYVIPYEYWGQGTQVTVSS”, for which the “polyreactivity (PSR sort gate)” value was “low polyreactivity”.

For the sequence “QVQLVESGGGLVQAGGSLRLSCAASGSIFWSYAMGWYIQAPGTERELVAAITTDGGTNYADSVKGRFTISLDNAKNTVYLLMKSLKPDDTAVYYCAGDTDPNPQIDYTLTMDYWGQGTEVTVSS”, the “polyreactivity (PSR sort gate)” value is reported as “low polyreactivity”. As for “QVQLVESGGGLVQAGGSLRLSCAASGSIFWTYAMGWYRQAPGKEREFVAAITFNYGSTYYADSVKGRFTISRDTAKNTVYLQMNSVKPEDTAVYYCNADTWYYYNFWSYIEYDYWGQGTQVTVSS”, the “polyreactivity (PSR sort gate)” value is listed as “high polyreactivity”.

For the sequence “QVQLVESGGGLVQAGGSLRLSCAASGSIFWVNAMGWYRQAPGQVSELVAAINYSDGSTSYADSVKGRFTISRDNAKNTVYLQMNSLKPEDTAVYYCNAESFELMYYWGQGTQVTVSS”, the “polyreactivity (PSR sort gate)” value was “low polyreactivity”. “QVQLVESGGGLVQAGGSLRLSCAASGSIFWVYAMGWYRQAPGKERELVAAISQSGGSTYYADSVKGRFTISRDNAKNTVYLQMNSLKPEYTAVYYCAAYVRGQNYDYWGQGTQVTVSS”: the “polyreactivity (PSR sort gate)” value is listed as “high polyreactivity”. Turning to “QVQLVESGGGLVQAGGSLRLSCAASGSIFWWNAMGGYRQAPGKERELVAAINWSTGRTYYADSVKGRFTISRDNAKNTVYLQMNSLKPEDTAVYYCAASFVGALGYDYWGQGTQVTVSS”, the “polyreactivity (PSR sort gate)” value is “low polyreactivity”.

As to “QVQLVESGGGLVQAGGSLRLSCAASGSIFWWYGMGWYRQAPGKEREFVADITSGGGTYYADSVKGRFTISRDNAKNTVYLQMNSLKPEDTAVYYCAADVRAYRFDYYFDYWGQGTQVTVSS”, the “polyreactivity (PSR sort gate)” value is given as “low polyreactivity”. Under “QVQLVESGGGLVQAGGSLRLSCAASGSIFWYAMGWYRQAPGKERELVATITSGASTTYADSVKGRFTISRDNPKNTVYLQMNSLKPEDTAVYYCAKGFTYPQTRFGYWGQGTQVTVSS” stands “low polyreactivity”; under “QVQLVESGGGLVQAGGSLRLSCAASGSIFWYNAMGWYRQAAGKERELVAAIRWRGGSTYYADSVKGRFTISRDNEKNTVYLQMNSLKPEDTAVYYFAAQVYVSQLYTSYYYWGQGTQVTVSS”, “high polyreactivity”; under “QVQLVESGGGLVQAGGSLRLSCAASGSIFWYNAMGWYRQAPGKERELVASISYSGAITYYADSVKGRFTISRDNAKNTVYLQMNSLKPEDTAVYYCNAEHYLPGYDWSEYDSWGQGTQVTVSS”, “low polyreactivity”. Under “QVQLVESGGGLVQAGGSLRLSCAASGSIFWYYAMGWSRQAPGKERELVAAITGSGGSTYYADSVKGRFTISRDNAKTTVYLQLNSLKPEDTAVYYCAAEAFFWYYGWYDYWGQGTQVTVSS” stands “high polyreactivity”.

Turning to “QVQLVESGGGLVQAGGSLRLSCAASGSIFYANAMGWYRQAPWKEREFVAAISSSGGGTSYADSVKGRFTISRDNAKNTVYLQMNSLKPEDTAVYYFAARVTYGGIPARQIYDYWGQGTQVTVSS”, the “polyreactivity (PSR sort gate)” value is recorded as “low polyreactivity”. For “QVQLVESGGGLVQAGGSLRLSCAASGSIFYAYARGWYRQAPGKERELVATISSVGSTYYADSVKGRFTISRDNAKHTVYLHMNSLKPEDTAVHYCAKQRIVVYKTGYDYWGQGTQVTVSS”, the “polyreactivity (PSR sort gate)” value is reported as “low polyreactivity”. Take “QVQLVESGGGLVQAGGSLRLSCAASGSIFYDNAMGWYRQAPGKERELVAAIRGRGGSTYYADSVKGRFTISRDNAKNTVYLQMNSLKPEDTAVYYCNALNYRYRKYDYWGQGTQVTVSS”: the “polyreactivity (PSR sort gate)” value was “high polyreactivity”. With “QVQLVESGGGLVQAGGSLRLSCAASGSIFYDNAMGWYRQAPGKERELVAAISFRGSSTYYADSVKGRFTISRDNAKNTVYLQMNSLKPEDTAVYYCNTDIYVQYGWGQGTQVTVSS”, the “polyreactivity (PSR sort gate)” value is given as “low polyreactivity”. Consider “QVQLVESGGGLVQAGGSLRLSCAASGSIFYDNGMGWYRQAPGKERELVAAISRGGTTNYSDSVKGRFTISRDKAKNTVYLQMNSLKPEDTAVYYCNAETRFTYWGSWYDYWGQGTQVTVSS”, for which the “polyreactivity (PSR sort gate)” value is on record as “low polyreactivity”.

“QVQLVESGGGLVQAGGSLRLSCAASGSIFYDYAMGWYRQAPGKERELVAAISGRGGSTYYADSVKGRFTISRDNAKNTVYLQMNSLKPEDTAVYYCAARYRYRFLDRYNYWGQGTQVTVSS”: the “polyreactivity (PSR sort gate)” value was “high polyreactivity”.
